{"source": "paper PMC9549473", "about": "“Triple-FRET multi-purpose fluorescent probe for three-protease detection” (RSC Advances, 2022)", "key": {"[1]": {"biological_target": "T1, Trypsin (bovine pancreas, TPCK treated) (Bos taurus, UniProt P00760)", "T1 construct": "Trypsin (bovine pancreas, TPCK treated, ≥10 000 BAEE units per mg protein); purchased Sigma-Aldrich (Steinheim, Germany); host or cells: bovine pancreas (tissue-derived)", "T1 sequence (P00760 24-246)": "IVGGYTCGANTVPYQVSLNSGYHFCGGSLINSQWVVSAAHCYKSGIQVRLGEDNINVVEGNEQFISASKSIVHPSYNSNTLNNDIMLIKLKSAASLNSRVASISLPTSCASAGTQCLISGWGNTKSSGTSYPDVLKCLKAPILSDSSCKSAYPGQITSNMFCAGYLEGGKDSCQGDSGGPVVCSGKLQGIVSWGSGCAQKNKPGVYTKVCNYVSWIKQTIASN", "assay": "Single protease detection with the triple-FRET 4-dye probe: trypsin", "assay_type": "biochemical", "settings": "5 μM probe, Tris–HCl pH 8.0, 37 °C, 45 min, λexc 425 nm, three parallels", "description": "(§1) Trypsin (bovine pancreas, TPCK treated, ≥10 000 BAEE units per mg protein) and α-chymotrypsin (bovine pancreas, TLCK treated, type VII, ≥40 units per mg protein) were ordered from Sigma-Aldrich (Steinheim, Germany). Caspase-8 (human, recombinant, active, 5000 units per mg protein) was provided by Enzo Life Sciences, Inc. (New York, USA). All enzyme species were obtained in the form of lyophilized white to off-white powders. They were reconstituted according to the providers' instructions, aliquoted in Eppendorf tubes, and finally stored at −80 °C in a deep freezer (Arctiko, Esbjerg Kommune, Denmark). […]\n(§2) The appropriate amount of the 4-dye probe (1) was dissolved in 950 μL of Tris–HCl buffer. […] Afterwards, the fluorescence emission spectrum upon excitation with the light source of 425 nm was measured at the time 0 using a fluorescence spectrometer (Cary Eclipse, Agilent Technologies, Santa Carla, CA, USA). […] Fluorescence emission responses were then repeatedly measured at the times 2, 5, 8, 12, 16, 20, 25, 30, 35, 40, and 45 min. During the entire period of the experiment, a fluorimeter cuvette was placed in a cell holder preheated to 37 °C, and located inside a fluorescence spectrometer.\n(§3) Additionally, the rules for individual protease recognition could be graphically presented, using fluorescence emission ratios of suitable fluorophores measured at particular times. […]"}, "[2]": {"biological_target": "T2, α-chymotrypsin (bovine pancreas, TLCK treated, type VII) (Bos taurus, UniProt P00766)", "T2 construct": "α-chymotrypsin (bovine pancreas, TLCK treated, type VII, ≥40 units per mg protein); purchased Sigma-Aldrich (Steinheim, Germany); host or cells: bovine pancreas (tissue-derived)", "assay": "Single protease detection with the triple-FRET 4-dye probe: chymotrypsin", "assay_type": "biochemical", "settings": "5 μM probe, Tris–HCl pH 8.0, 37 °C, 45 min, λexc 425 nm, three parallels", "description": "as §1, §2, §3"}, "[3]": {"biological_target": "T3, Caspase-8 (human, recombinant, active) (Homo sapiens, UniProt Q14790)", "T3 construct": "Caspase-8 (human, recombinant, active, 5000 units per mg protein); purchased Enzo Life Sciences, Inc. (New York, USA)", "T3 sequence (Q14790 217-374 limits assumed)": "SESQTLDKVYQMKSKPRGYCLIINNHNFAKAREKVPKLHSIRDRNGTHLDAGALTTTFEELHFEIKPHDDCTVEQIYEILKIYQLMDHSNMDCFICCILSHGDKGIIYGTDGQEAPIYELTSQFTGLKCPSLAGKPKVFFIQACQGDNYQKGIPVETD", "T3 sequence (Q14790 385-479 limits assumed)": "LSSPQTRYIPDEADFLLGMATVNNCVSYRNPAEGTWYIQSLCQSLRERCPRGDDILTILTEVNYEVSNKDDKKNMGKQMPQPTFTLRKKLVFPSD", "assay": "Single protease detection with the triple-FRET 4-dye probe: caspase-8", "assay_type": "biochemical", "settings": "5 μM probe, Tris–HCl pH 8.0 with DTT 10 mM, 37 °C, 45 min, λexc 425 nm, three parallels", "description": "as §1, §2, §3"}, "[4]": {"assay": "Solubility in aqueous media (Tris–HCl buffer)", "assay_type": "physicochemical", "settings": "Tris–HCl buffer pH 8.0, from solid, read-out: solubility: stock solution that could be promptly and efficiently prepared", "method": "(§4) Due to its size and complexity, the 4-dye probe (1) was also briefly examined from the solubility in aqueous media point of view. It turned out that at least 0.5 mM stock solution of the target substrate (1) in Tris–HCl buffer (pH = 8.0) could be promptly and efficiently prepared. For comparison, a solution of a hundredfold lower concentration (5 μM) of the 4-dye probe (1) in the same buffer media was utilized in the biological assays. The relatively high solubility of the substrate (1) could be attributed to its structure (Fig. 1), comprising six polyethylene glycol-based (PEG) spacers and two charged fluorophores (Rhodamine B and HN6). Moreover, three terminal carboxyl groups of the peptide backbone are instantly turned into corresponding carboxylate salts in a basic buffer environment, contributing to the solubility of the 4-dye probe (1) in aqueous media. Afterwards, its stability was taken into consideration. The dark blue powder obtained after freeze-drying was dissolved in an appropriate volume of Tris–HCl buffer (pH = 8.0), and shortly after that, LC-MS analysis was performed. The process was repeated a few times within one month."}, "[5]": {"assay": "Storage stability of the solid, LC-MS", "assay_type": "physicochemical", "settings": "solid powder stored at −80 °C; dissolved to 50 μM in Tris–HCl pH 8.0 and analysed by LC-MS, repeated over 30 days", "method": "The isolated 4-dye substrate (1) was characterized by LC-MS analysis and HRMS. Its final purity was determined based on LC-MS analysis, testing different analytical columns, mobile phases, gradients and elution times (ESI – Fig. S6 and S7 ^†). For stability testing, the 4-dye probe (1) in the form of powder (stored at −80 °C) was dissolved in an appropriate volume of Tris–HCl buffer (pH = 8.0) to obtain a 50 μM solution and subsequently analyzed by LC-MS. This process was repeated a few times over 30 days.\nas §4, with “Afterwards, its stability was taken into consideration. The dark blue powder obtained after freeze-drying was dissolved in an appropriate volume of Tris–HCl buffer (pH = 8.0), and shortly after that, LC-MS analysis was performed. The process was repeated a few times within one month.” left out"}, "[6]": {"assay": "Stability in buffer solution without enzyme (fluorescence responses, blank sample)", "assay_type": "physicochemical", "settings": "no enzyme, 5 μM probe, λexc 425 nm", "method": "Enzyme assays were carried out in 0.1 M Tris–HCl buffer solution in ultrapure water, with the addition of NaCl (25 mM), EDTA (5 mM) and glycerol (2.5% v/v). The pH of the media (pH = 8.0) was adjusted by gradual dropwise addition of concentrated NaOH aqueous solution.\nThe appropriate amount of the 4-dye probe (1) was dissolved in 950 μL of Tris–HCl buffer. The resulting solution was placed into a plastic fluorimeter cuvette and preheated to 37 °C. Afterwards, the fluorescence emission spectrum upon excitation with the light source of 425 nm was measured at the time 0 using a fluorescence spectrometer (Cary Eclipse, Agilent Technologies, Santa Carla, CA, USA). Then 20 μL of 1 mM HCl with/without enzyme (trypsin or chymotrypsin) and 30 μL of physiological saline solution with/without enzyme (caspase-8) were added, resulting in a final volume of 1 mL of 5 μM 4-dye substrate (1). In the case of caspase-8, DL-dithiothreitol (10 mM) was also present in a buffer. Fluorescence emission responses were then repeatedly measured at the times 2, 5, 8, 12, 16, 20, 25, 30, 35, 40, and 45 min. During the entire period of the experiment, a fluorimeter cuvette was placed in a cell holder preheated to 37 °C, and located inside a fluorescence spectrometer.\nAs the three target proteases, trypsin, chymotrypsin, and caspase-8 were considered. […] During the biological testing, the emission responses of all four dyes were monitored throughout the entire period of the experiment. The assay conditions and parameters were established based on our practical observations, theoretical facts, and previous experience.[12,28,29] To obtain a uniform incubation medium suitable for all three proteases detection, the appropriate conditions for trypsin and chymotrypsin sensing were combined with those suitable for caspase-8 screening. As a result, EDTA, NaCl and glycerol were added to the Tris–HCl buffer solution, and its pH value was set to 8.0. After dissolving the intact 4-dye probe (1) in that way prepared buffer, the emission responses of all four fluorophores were monitored within 45 min of incubation at 37 °C."}, "trypsin": {"biological_target": "T4, trypsin (Bos taurus, UniProt P00760)", "T4 construct": "Trypsin (bovine pancreas, TPCK treated, ≥10 000 BAEE units per mg protein); purchased Sigma-Aldrich (Steinheim, Germany); host or cells: bovine pancreas (tissue-derived)", "T4 sequence (P00760 24-246)": "T1 sequence (P00760 24-246)", "assay": "LC-MS analysis of the probe cleaved by trypsin", "assay_type": "biochemical, bovine", "settings": "LC-MS of cleavage fragments", "method": "(§5) Following the successful development of the methodology for the separate detection of individual proteases in a sample, we decided to investigate and evaluate the possibilities of simultaneous detection of multiple enzymes. […] Consequently, some potential ambiguities and drawbacks were expected from the perspective of nonspecific cleavage of the 4-dye substrate 1 by chymotrypsin. The experiments of the two-enzyme detection were performed with all three theoretically possible pairs of the considered proteases in their low concentrations."}, "chymotrypsin": {"biological_target": "T5, chymotrypsin (Bos taurus, UniProt P00766)", "T5 construct": "α-chymotrypsin (bovine pancreas, TLCK treated, type VII, ≥40 units per mg protein); purchased Sigma-Aldrich (Steinheim, Germany); host or cells: bovine pancreas (tissue-derived)", "assay": "LC-MS analysis of the probe cleaved by chymotrypsin", "assay_type": "biochemical, bovine", "settings": "LC-MS of cleavage fragments; chymotrypsin 2.5 µg/mL, 2 hours", "method": "as §5\nFigure S10: LC-MS analysis of the 4-dye probe cleaved by chymotrypsin (2.5 µg/mL, 2 hours).\nFragment 1 (Rt = 1.46 min) […]"}, "caspase-8": {"biological_target": "T6, caspase-8 (Homo sapiens, UniProt Q14790)", "T6 construct": "Caspase-8 (human, recombinant, active, 5000 units per mg protein); purchased Enzo Life Sciences, Inc. (New York, USA)", "T6 sequence (Q14790 217-374 limits assumed)": "as the sequence (Q14790 217-374 limits assumed) above", "T6 sequence (Q14790 385-479 limits assumed)": "as the sequence (Q14790 385-479 limits assumed) above", "assay": "LC-MS analysis of the probe cleaved by caspase-8", "assay_type": "biochemical", "settings": "LC-MS of cleavage fragments"}, "[7]": {"settings": "16 min vs 0 min, Tris–HCl pH 8.0, 37 °C, mean of 3 parallels"}, "[8]": {"settings": "45 min vs 0 min, Tris–HCl pH 8.0, 37 °C, mean of 3 parallels"}}, "note": "Non-standard residues stand in square brackets, D forms with d. Residues, ends and D or L forms follow the SMILES beside them. Groups on a side chain read outwards from the residue. *: point of attachment. RhodamineB = CCN(CC)c1ccc2c(-c3ccccc3C(=O)*)c3ccc(=[N+](CC)CC)cc-3oc2c1; X1 = CC[N+](CC)=c1ccc2c(-c3ccccc3C(=O)*)c3c(oc-2c1)-c1ccc(N(C)C)cc1CC3; X3 = CCN(CC)c1ccc2cc(C(=O)N[C@@H](CCCCN*)C(=O)O)c(=O)oc2c1; X2 = O=C(c1ccccc1-c1c2ccc(=O)cc-2oc2cc(O)ccc12)*; AEEA = NCCOCCOCC(=O)O; Sar = CNCC(=O)O", "data": [{"smiles": "CCN(CC)c1ccc2cc(C(=O)N[C@@H](CCCCNC(=O)COCCOCCNC(=O)[C@H](C)NC(=O)[C@H](CC(=O)O)NC(=O)[C@@H](NC(=O)[C@H](CCC(=O)O)NC(=O)[C@H](CC(C)C)NC(=O)COCCOCCNC(=O)[C@H](CCCCNC(=O)CN(C)C(=O)c3ccccc3-c3c4ccc(=O)cc-4oc4cc(O)ccc34)NC(=O)COCCOCCNC(=O)[C@H](C)NC(=O)[C@H](CCCCN)NC(=O)[C@H](C)NC(=O)COCCOCCNC(=O)[C@H](CCCCNC(=O)CN(C)C(=O)c3ccccc3-c3c4ccc(=[N+](CC)CC)cc-4oc4cc(N(CC)CC)ccc34)NC(=O)COCCOCCNC(=O)[C@H](C)NC(=O)[C@H](Cc3ccccc3)NC(=O)[C@H](C)NC(=O)COCCOCCNC(=O)CN(C)C(=O)c3ccccc3-c3c4ccc(=[N+](CC)CC)cc-4oc4c3CCc3cc(N(C)C)ccc3-4)[C@@H](C)O)C(=O)O)c(=O)oc2c1", "note": "[4-dye probe (1)] (X1-[Sar][AEEA]AFA[AEEA]K([Sar-RhodamineB])[AEEA]AKA[AEEA]K([Sar-X2])[AEEA]LETDA[AEEA]-X3)", "values": [{"measurement": "lowest detectable concentration of trypsin", "setting": "[1]", "value": 0.5, "unit": "ng/mL"}, {"measurement": "lowest detectable concentration of chymotrypsin", "setting": "[2]", "value": 0.2, "unit": "µg/mL"}, {"measurement": "lowest detectable concentration of caspase-8", "setting": "[3]", "value": 2, "unit": "U mL^−1"}, {"measurement": "solubility", "setting": "[4]", "value": "≥ 500", "unit": "µM"}, {"measurement": "stability on storage (comparable LC-MS chromatograms and peak areas)", "setting": "[5]", "value": "at least 30 days"}, {"measurement": "fluorescence intensities of all four dyes during incubation in buffer (stability in buffer)", "setting": "[6]; Tris–HCl pH 8.0 with NaCl, EDTA, glycerol, 37 °C, 45 min", "value": "practically unchanged"}, {"measurement": "DEAC (I16/I0)", "setting": "[6]; [7]", "value": 1.03}, {"measurement": "DEAC(I16/I0)/FL(I16/I0)", "setting": "[6]; [7]", "value": 0.99}, {"measurement": "FL (I16/I0)", "setting": "[6]; [7]", "value": 1.04}, {"measurement": "HN6 (I16/I0)", "setting": "[6]; [7]", "value": 0.97}, {"measurement": "DEAC (I45/I0)", "setting": "[6]; [8]", "value": 1.05}, {"measurement": "DEAC(I45/I0)/FL(I45/I0)", "setting": "[6]; [8]", "value": 0.97}, {"measurement": "FL (I45/I0)", "setting": "[6]; [8]", "value": 1.08}, {"measurement": "HN6 (I45/I0)", "setting": "[6]; [8]", "value": 0.97}, {"measurement": "sites of the probe cleaved by trypsin", "setting": "trypsin", "value": "cleave only their own recognizable sites"}, {"measurement": "sites of the probe cleaved by chymotrypsin", "setting": "chymotrypsin", "value": "both chymotrypsin and trypsin linkers were cleaved"}, {"measurement": "sites of the probe cleaved by caspase-8", "setting": "caspase-8", "value": "cleave only their own recognizable sites"}]}]}
